US20250353894A1 (UNIVERSITAT ULM, published 2025)

Tests used:
complement protein C3b [1] = target: T1, complement protein C3b (UniProt P01024 749-1663; P01024 23-667); assay: SPR, C3b coupled to chip, 1:1 steady state affinity model
T1 construct: also called factor C3b
Procedure: (§1) A surface plasmon resonance (SPR)-based assay (Schmidt et al. (2013), Journal of Immunology 190:5712-5721) was used to determine the affinity of the engineered complement inhibitors for the key complement protein C3b. 1940 response units […] of C3b were coupled to the chip. The samples were run at 25 μl/min in a concentration series with the highest and the lowest concentrations being assayed in duplicate to probe reproducibility. To get an estimation of the KD value for other proteins the plot of response (during steady state) against the assayed concentration was fitted to a 1:1 steady state affinity model.

complement protein C3b [2] = target: T1, complement protein C3b; assay: not named in the sentence (SPR on C3b by Table 1)
Procedure: as §1

T1 sequence (P01024 749-1663 limits assumed, chain 1 of 2): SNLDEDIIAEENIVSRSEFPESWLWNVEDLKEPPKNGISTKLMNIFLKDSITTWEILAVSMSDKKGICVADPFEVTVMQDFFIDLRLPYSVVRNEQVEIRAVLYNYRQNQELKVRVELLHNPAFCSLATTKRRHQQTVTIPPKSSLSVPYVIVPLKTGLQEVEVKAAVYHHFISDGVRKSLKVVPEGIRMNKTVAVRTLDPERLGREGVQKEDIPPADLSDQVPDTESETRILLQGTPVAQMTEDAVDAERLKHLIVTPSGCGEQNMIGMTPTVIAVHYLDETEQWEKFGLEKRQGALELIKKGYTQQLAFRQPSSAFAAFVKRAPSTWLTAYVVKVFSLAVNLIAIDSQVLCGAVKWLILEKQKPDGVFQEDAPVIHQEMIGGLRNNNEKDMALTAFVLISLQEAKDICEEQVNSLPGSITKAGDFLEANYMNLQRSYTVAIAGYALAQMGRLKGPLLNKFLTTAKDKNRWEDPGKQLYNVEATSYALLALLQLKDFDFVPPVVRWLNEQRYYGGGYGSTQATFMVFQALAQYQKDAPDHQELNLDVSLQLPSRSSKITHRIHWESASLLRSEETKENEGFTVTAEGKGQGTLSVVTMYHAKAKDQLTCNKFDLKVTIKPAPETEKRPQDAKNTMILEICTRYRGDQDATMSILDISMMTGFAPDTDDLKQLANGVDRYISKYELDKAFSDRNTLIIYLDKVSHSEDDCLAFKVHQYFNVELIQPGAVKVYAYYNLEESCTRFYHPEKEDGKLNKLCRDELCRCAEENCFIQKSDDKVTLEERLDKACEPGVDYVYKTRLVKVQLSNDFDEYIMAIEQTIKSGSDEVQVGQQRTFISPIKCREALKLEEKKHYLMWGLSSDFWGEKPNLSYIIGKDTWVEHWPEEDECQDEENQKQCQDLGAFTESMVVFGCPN
T1 sequence (P01024 23-667 limits assumed, chain 2 of 2): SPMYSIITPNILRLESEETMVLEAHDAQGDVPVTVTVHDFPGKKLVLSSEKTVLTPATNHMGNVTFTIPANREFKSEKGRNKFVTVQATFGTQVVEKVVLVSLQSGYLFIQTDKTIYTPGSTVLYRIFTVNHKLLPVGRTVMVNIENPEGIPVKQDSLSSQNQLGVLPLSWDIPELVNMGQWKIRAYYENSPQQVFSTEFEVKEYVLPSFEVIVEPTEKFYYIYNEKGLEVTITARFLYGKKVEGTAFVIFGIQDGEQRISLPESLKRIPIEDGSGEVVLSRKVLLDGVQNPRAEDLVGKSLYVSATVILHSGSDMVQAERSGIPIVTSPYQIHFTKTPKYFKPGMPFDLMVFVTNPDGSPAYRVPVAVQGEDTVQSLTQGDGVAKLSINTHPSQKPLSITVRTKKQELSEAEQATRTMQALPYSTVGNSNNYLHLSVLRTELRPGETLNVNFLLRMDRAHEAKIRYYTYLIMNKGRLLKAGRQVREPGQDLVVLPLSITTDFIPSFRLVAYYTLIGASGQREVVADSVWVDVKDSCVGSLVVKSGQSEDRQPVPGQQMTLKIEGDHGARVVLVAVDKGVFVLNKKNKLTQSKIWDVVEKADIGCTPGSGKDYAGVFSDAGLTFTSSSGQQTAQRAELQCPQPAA

Binder	Kd (complement protein C3b [1])	Kd (complement protein C3b [2])
DAF(1-4) (other, Produced in Pichia pastoris; also called soluble DAF; sDAF) DCGLPPDVPNAQPALEGRTSFPEDTVITYKCEESFVKIPGEKDSVICLKGSQWSDIEEFCQRSCEVPTRLNSASLKQPYITQNYFPVGTVVEYECRPGYRREPSLSPKLTCLQNLKWSTAVEFCKKKSCPNPGEIRNGQIDVPGGILFGATISFSCNTGYKLFGSTSSFCLISGSSVQWSDPLPECREIYCPAPPQIDNGIIQGERDHYGYRQSVTYACNKGFTMIGEHSIYCTVNNDEGEWSGPPPECR	11500 nM	–
CR1(15-17) (receptor, Produced in Pichia pastoris; also called CCPs 15 to 17 of human CR1) not shown	954 nM	–
DAF(1-4)FH(19-20) long linker (other, Fusion protein with an oligo-glycine linker; also called DAF(1-4)FH(19-20)-LL) DCGLPPDVPNAQPALEGRTSFPEDTVITYKCEESFVKIPGEKDSVICLKGSQWSDIEEFCQRSCEVPTRLNSASLKQPYITQNYFPVGTVVEYECRPGYRREPSLSPKLTCLQNLKWSTAVEFCKKKSCPNPGEIRNGQIDVPGGILFGATISFSCNTGYKLFGSTSSFCLISGSSVQWSDPLPECREIYCPAPPQIDNGIIQGERDHYGYRQSVTYACNKGFTMIGEHSIYCTVNNDEGEWSGPPPECRGGGGGGGGGGGGGGGKCGPPPPIDNGDITSFPLSVYAPASSVEYQCQNLYQLEGNKRITCRNGQWSEPPKCLHPCVISREIMENYNIALRWTAKQKLYSRTGESVEFVCKRGYRLSSRSHTLRTTCWDGKLEYPTCA	175 nM	–
CR1(1-3)FH(19-20)CR1(15-17) (other, Multi-domain fusion polypeptide produced in Pichia pastoris) QCNAPEWLPFARPTQLTDEFEFPIGTYLNYECRPGYSGRPFSIICLKNSVWTGAKDRCRRKSCRNPPDPVNGMVHVIKGIQFGSQIKYSCTKGYRLIGSSSATCIISGDTVIWDQETPICDRIPCGLPPTITNGDFISTNRENFHYGSVVTYRCNPGSGGRKVFELVGEPSIYCTSNDDQVGIWSGPAPQCIIGGGGGGGGGGGGGGKCGPPPPIDNGDITSFPLSVYAPASSVEYQCQNLYQLEGNKRITCRNGQWSEPPKCLHPCVISREIMENYNIALRWTAKQKLYSRTGESVEFVCKRGYRLSSRSHTLRTTCWDGKLEYPTCAGGGGGGGHCQAPDHFLFAKLKTQTQASDFPIGTSLKYECRPEYYGRPFSITCLDNLVWSSPKDVCKRKSCKTPPDPVNGMVHVITDIQVGSRIQYSCTTGHRLIGHSSAECILSGNTAHWSTKPPICQRIPCGLPPTIANGDFISTNRENFHYGSVVTYRCNLGSRGRKVFELVGEPSIYCTSNDDQVGIWSGPAPQCII	40.6 nM	40 nM

Results, then the binder that gave them:

Kd (complement protein C3b [1])	Kd (complement protein C3b [2])	Binder
125 nM	–	DAF(1-4)FH(19-20) short linker (other, Fusion protein; the two domains are joined directly; also called DAF(1-4)FH(19-20)-SL) DCGLPPDVPNAQPALEGRTSFPEDTVITYKCEESFVKIPGEKDSVICLKGSQWSDIEEFCNRSCEVPTRLNSASLKQPYITQNYFPVGTVVEYECRPGYRREPSLSPKLTCLQNLKWSTAVEFCKKKSCPNPGEIRNGQIDVPGGILFGATISFSCNTGYKLFGSTSSFCLISGSSVQWSDPLPECREIYCPAPPQIDNGIIQGERDHYGYRQSVTYACNKGFTMIGEHSIYCTVNNDEGEWSGPPPECRGPGGGKCGPPPPIDNGDITSFPLSVYAPASSVEYQCQNLYQLEGNKRITCRNGQWSEPPKCLHPCVISREIMENYNIALRWTAKQKLYSRTGESVEFVCKRGYRLSSRSHTLRTTCWDGKLEYPTCAKR
4670 nM	–	FH(19-20) (other, also called CCPs 19 and 20 of Factor H) KCGPPPPIDNGDITSFPLSVYAPASSVEYQCQNLYQLEGNKRITCRNGQWSEPPKCLHPCVISREIMENYNIALRWTAKQKLYSRTGESVEFVCKRGYRLSSRSHTLRTTCWDGKLEYPTCA
22.8 nM	20 nM	DAF(1-4)FH(19-20)CR1(15-17) (other, Multi-domain fusion polypeptide produced in Pichia pastoris; also called triple I; triple-I) DCGLPPDVPNAQPALEGRTSFPEDTVITYKCEESFVKIPGEKDSVICLKGSQWSDIEEFCQRSCEVPTRLNSASLKQPYITQNYFPVGTVVEYECRPGYRREPSLSPKLTCLQNLKWSTAVEFCKKKSCPNPGEIRNGQIDVPGGILFGATISFSCNTGYKLFGSTSSFCLISGSSVQWSDPLPECREIYCPAPPQIDNGIIQGERDHYGYRQSVTYACNKGFTMIGEHSIYCTVNNDEGEWSGPPPECRGGGGGGGGGGGGGGGKCGPPPPIDNGDITSFPLSVYAPASSVEYQCQNLYQLEGNKRITCRNGQWSEPPKCLHPCVISREIMENYNIALRWTAKQKLYSRTGESVEFVCKRGYRLSSRSHTLRTTCWDGKLEYPTCAGGGGGGGHCQAPDHFLFAKLKTQTQASDFPIGTSLKYECRPEYYGRPFSITCLDNLVWSSPKDVCKRKSCKTPPDPVNGMVHVITDIQVGSRIQYSCTTGHRLIGHSSAECILSGNTAHWSTKPPICQRIPCGLPPTIANGDFISTNRENFHYGSVVTYRCNLGSRGRKVFELVGEPSIYCTSNDDQVGIWSGPAPQCII
